Measurements: patent US20240059758A1 (published 2024)
Substitutions are numbered along the chain they refer to.

B1: STE72-1B6 (antibody, V domains shown)
VH: QVKLVQSGGGLVQPGGSLRLSCAASGFTFSSYAMSWVRQAPGKGLEWVSGISGSGGSTYYADSVKGRFTISRDNSKNTLYLQVNSLRAEDTAVYYCAKAPYGDFRGLWYFDYWGQGTLVTVSS
VL: DIVMTQSPFSVSASVGDRVTISCRASQDIRSWLAWYQQKPGKAPQLLIYDASSLQSGVPSRFSGSGSGTDFTLTISSLQPEDFATYYCQQADSVPLTFGGGTKVEIQ
B2: STE70-1E12 (antibody, V domains shown)
VH: QMQLVQSGAEVKKPGASVKVSCKASGYTFTGYYMHWVRQAPGQGLEWMGRINPNSGGTNYAQKFQGRVTMTRDTSTSTAYMELSRLRSDDTAVYYCVRDGYNFNNWFDPWGQGTLVTVSS
VL: NFMLTQPHSVSGSPGETITISCTGSGGSIASNYVQWYRQRPGSAPTIVIYEDTQRPSGVPDRFSGSIDSSSNSASLTISGLKTEDEADYYCQSSESTNHVMFGGGSKLTVL
B3: STE72-8A2 (antibody, V domains shown)
VH: QVQLVQSGAEVKKPGASVKVSCKASGYTFTSYGISWVRQAPGQGLEWMGWISAYNGNTNYAQKLQGRVTMTTDTSTSTAYMELRSLRSDDTAVYYCARFFYDSSGYSTDYWGQGTLVTVSS
VL: not shown
B4: STE72-8A6 (antibody, V domains shown)
VH: B3 VH
VL: DIVMTQSPSTLSASVGDRVTISCRASQNIGTWLAWYQQKPGKAPKLLISKASSLESGVPSRFSGSGSGTDFTLTISSLQPDDFATYYCQQYDSYLFTFGQGTKLEIR
B5: STE72-4E12 (antibody, V domains shown)
VH: QVQLVQSGAEVKKPGASVKVSCKASGYTFTSYYMHWVRQAPGQGLEWMGIINPSGGSTSYAQKFQGRVTMTRDTSTSTVYMELSSLRSEDTAVYYCARDLSGGLDYWGQGTLVTVSS
VL: ETTLTQSPATLSVSPGERVTLACRAGQTISSKLAWYRQKPGQAPSLLIYDASTRATGVPARFSGSGSGTEFTLTISSLQSEDFAVYYCQQYSDWPPTFGQGTKVEIK
B6: STE72-2G4 (antibody, V domains shown)
VH: B3 VH
VL: ETTLTQSPAFMSVTPGDRAILSCRASQSVDSHLAWYHQKPGQPPRLLIYGASTRATGIPARFSGSRSGTEFTLTISGLQSEDLGVYYCQQYASWPPGYNFGQGTKLEIK
B7: STE73-6C1 (antibody, V domains shown)
VH: QVQLVQSGGGVVQPGRSLRLSCAASGFTFSSYAMHWVRQAPGKGLEWVAVISYDGSNKYYADSVKGRFTISRDNSKNTLYLQMNSLRAEDTAVYYCARSYVGGMDVWGQGTTVTVSS
VL: QLVLTQSPSVSGAPGQSVTISCTGTDSNIGAGYNVHWYQQLPGAAPKLIISYTDNRPSGVPDRFSGSKSGTSASLAITGLQAEDEADYYCQSSDRTLVGSLFGTGTKVTVL
B8: STE73-6B10 (antibody, V domains shown)
VH: QVQLVQSGAEVKKPGASVKVSCKASGYTFTSYGISWVRQAPGQGLEWMGWINPNSGGTNYAQKFQGRVTMTRDTSISTAYMELSRLRSDDTAVYYCARDRLRYGDSGSYYYYGMDVWGQGTTVTVSS
VL: QSALTQPRSVSGSPGQSVTISCTGTSSDVGGYNYVSWYQQHPGKAPKLLISEVTRRPSGVPDRFSGSKSGNTASLTVSGLQTEDEADYYCGSYAGSNTWVFGGGTKLTVL
B9: STE73-2C2 (antibody, V domains shown)
VH: QVQLVESGGGLVQPGGSLRLSCAASGITVSSNYMSWVRQAPGKGLEWVSVIYSGGSTFYADSVKGRFTISRDNSKNTLYLQMNSLRAEDTGVYYCARGHDNLDYWGQGTLVTVSS
VL: LPVLTQPHSVSESPGKTVIISCTGSSDSIASNYVQWYQQRPGSAPTTVIYEDNKRPSGVPDRFSGSTDSSSNSASLTISGLKTEDEAEYYCQSYDSNNHWVFGGGTKLTVL
B10: STE73-2G8 (antibody, V domains shown)
VH: QVQLVQSGGGLVKPGGSLRLSCAASGITVSSNYMSWVRQAPGKGLEWVSILYSGGTTFYTDSVKGRFTISRDNSKNTLHLQMNSLRAEDTAVYYCARWSGTYYDYWGQGTLVTVSS
VL: SSELTQDPAVSVALGQTVRITCQGDSLRSYYASWYQQKPGQAPVLVIYGKNNRPSGIPDRFSGSSSGNTASLTITGAQAEDEADYYCNSRDSTNDPVLFGAGTKLTVL
B11: STE73-2E9 (antibody, V domains shown)
VH: QVQLVQSGAEVKKPGASVKVSCKASGYTFTSYGISWVRQAPGQGLEWMGWISAYNGNTNYAQKLQGRVTMTTDTSTSTAYMELRSLRSDDTAVYYCARGKFDYWGQGTLVTVSS
VL: QSVLTQPPSVSEAPSQRVTISCSGSSSNIGNNAVNWYQQLPGKAPKLLIYYDDVLPSGVSDRFSGSKSGTSASLAISGLQSGDEADYYCAAWDDSLSGVVFGGGTKLTVL
B12: STE73-2B2 (antibody, V domains shown)
VH: QVQLVQSGAEVKKPGASVKVSCKASGYTFTGYYMHWVRQAPGQGLEWMGWINPNSGGTNYAQKFQGRVTITRDTSASTAYMELSSLRSEDTAVYYCARVSGWYFGAFDIWGQGTMVTVSS
VL: LPVLTQPHSLSESPGKTVNISCTGSSGSIASNYVQWYQQRPGSAPTTVIYEDSHRPSGVPDRFSGSIDSSSNSASLSISGLKTEDEADYYCQSYDSSNNQWVFGGGTKLTVL
B13: STE73-9G3 (antibody, V domains shown)
VH: QVQLQESGGGLVQPGGSLRLSCAASGFTFSSYAMSWVRQAPGKGLEWVSAISGSGGSTYYADSVKGRFTISRDNSKNTLYLQMNSLRAEDTAVYYCARDLVLGSGSSNDWGRGTLVTVSS
VL: B7 VL with L2P, S7P

Each binder was assayed against T1, receptor binding domain (RBD) of the S1-subunit of SARS-CoV-2 glycoprotein S (UniProt P0DTC2 319-541) (assay: flow).
In the case of B1, the IC50 is reported as 4.8 nM. Binder B2 has an IC50 of 3.2 nM. Work on B3 yielded an IC50 of 1.5 nM. B4 gave an IC50 of 2.8 nM. B5 showed an IC50 of 3 nM. With B6 the IC50 was 3.7 nM.

These binders were tested against S1- (UniProt P0DTC2 14-1210) (assay: ELISA).
B5 showed an EC50 of 11.6 nM.

Each binder was assayed against T2, RBD-mFc (UniProt P0DTC2 319-591) (assay: ELISA).
With B1 the EC50 was 1.6 nM. B2 showed an EC50 of 1.1 nM. With B3 the EC50 was 1.5 nM. Binder B4 has an EC50 of 1.5 nM. B5 gave an EC50 of 4.7 nM. With B6 the EC50 was 0.7 nM.

The binders below were run against T3, S1-mFc (UniProt P0DTC2 14-694) (assay: ELISA).
With B1 the EC50 was 2.2 nM. B2 showed an EC50 of 1.5 nM. B3 showed an EC50 of 2.3 nM. For B4, the EC50 was 2.9 nM. Binder B5 has an EC50 of 10.4 nM. Binder B6 has an EC50 of 0.9 nM.

Target: T2, RBD-mFc
Test: ELISA
Remark: another data set of the same source
B7 showed an EC50 of 2 nM. B8 showed an EC50 of 17.3 nM. B9 was tested, and the EC50 was 9.6 nM. Binder B10 has an EC50 of 0.7 nM. With B11 the EC50 was 0.7 nM. Work on B12 yielded an EC50 of 0.5 nM. For B13, the EC50 was 1.4 nM.

Target: T3, S1-mFc
Test: ELISA
Remark: another data set of the same source
Binder B7 has an EC50 of 2.8 nM. In the case of B8, the EC50 is reported as 15.3 nM. With B9 the EC50 was 17.9 nM. Work on B10 yielded an EC50 of 1 nM. B11 gave an EC50 of 0.6 nM. In the case of B12, the EC50 is reported as 0.8 nM. In the case of B13, the EC50 is reported as 1.6 nM.

Target: T1, receptor binding domain (RBD) of the …
Test: flow
Remark: another data set of the same source
B7 showed an IC50 of 4.1 nM. Work on B8 yielded an IC50 of 73 nM. Binder B9 has an IC50 of 3 nM. Binder B10 has an IC50 of 2.8 nM. B11 gave an IC50 of 3.4 nM. Work on B12 yielded an IC50 of 1.7 nM. Binder B13 has an IC50 of 3.4 nM.
